Assay results from article PMC8625570 (2021).

Experiments:
Experiment in all cases: mGppNHp-bound
CDC42 (aa 1-178) [1] = target: T1, CDC42 (aa 1-178) (human, UniProt P60953 1-178)
RAC3 (aa 1-192) [2] = target: T2, RAC3 (aa 1-192) (human, UniProt P60763 1-192)
RHOG (aa 1-178) [3] = target: T3, RHOG (aa 1-178) (human, UniProt P84095 1-178)
RAC1 (aa 1-179) [4] = target: T4, RAC1 (aa 1-179) (human, UniProt P63000 1-179)
CDC42 T25K/N26D [5] = target: T5, CDC42 T25K/N26D (human, UniProt P60953 1-178, T25K | N26D)
RAC1 T25K/N26D [6] = target: T6, RAC1 T25K/N26D (human, UniProt P63000 1-179, T25K | N26D)
RAC1 Q74D [7] = target: T7, RAC1 Q74D (human, UniProt P63000 1-179, Q74D)
CDC42 Q74D [8] = target: T8, CDC42 Q74D (human, UniProt P60953 1-178, Q74D)
RAC1 M45E/N52E [9] = target: T9, RAC1 M45E/N52E (human, UniProt P63000 1-179, M45E | N52E)
[10] = target: T10, RHOA-to-RAC1 variant (RHOA K27T, D28N, E47M, E54N, D76Q) (human, UniProt P61586 1-181, K27T | D28N | E47M | E54N | D76Q)
[11] = target: T11, RAC1 V85D/S88D (so in the source); residue 88 of RAC1 is Ala by the legend of Figure 2) (human, UniProt P63000 1-179, V85D | S88D (Ala-88 in RAC1))
CDC42 V85D/S88D [12] = target: T12, CDC42 V85D/S88D (human, UniProt P60953 1-178, V85D | S88D)
[13] = target: T13, CDC42 M45E/N52E (so in the source); residue 52 of CDC42 is given as T52 in the discussion) (human, UniProt P60953 1-178, M45E | N52E (T52 in CDC42))
CDC42 T25K/N26D [14] = target: T5, CDC42 T25K/N26D; remark: listed apart in the source
RAC1 T25K/N26D [15] = target: T6, RAC1 T25K/N26D; remark: listed apart in the source
RAC1 Q74D [16] = target: T7, RAC1 Q74D; remark: listed apart in the source
CDC42 Q74D [17] = target: T8, CDC42 Q74D; remark: listed apart in the source
RAC1 M45E/N52E [18] = target: T9, RAC1 M45E/N52E; remark: listed apart in the source
[19] = target: T10, RHOA-to-RAC1 variant (RHOA K27T, D28N, …); remark: listed apart in the source
[20] = target: T11, RAC1 V85D/S88D (so in the source); residue 88 …; remark: listed apart in the source
CDC42 V85D/S88D [21] = target: T12, CDC42 V85D/S88D; remark: listed apart in the source
[22] = target: T13, CDC42 M45E/N52E (so in the source); residue 52 …; remark: listed apart in the source
CDC42 (aa 1-178) [23] = target: T1, CDC42 (aa 1-178); remark: listed apart in the source
RAC3 (aa 1-192) [24] = target: T2, RAC3 (aa 1-192); remark: listed apart in the source
RHOG (aa 1-178) [25] = target: T3, RHOG (aa 1-178); remark: listed apart in the source
RAC1 (aa 1-179) [26] = target: T4, RAC1 (aa 1-179); remark: listed apart in the source
RAC2 (aa 1-192) = RAC2 (aa 1-192) (human, UniProt P15153 1-192)

T3 sequence (P84095 1-178): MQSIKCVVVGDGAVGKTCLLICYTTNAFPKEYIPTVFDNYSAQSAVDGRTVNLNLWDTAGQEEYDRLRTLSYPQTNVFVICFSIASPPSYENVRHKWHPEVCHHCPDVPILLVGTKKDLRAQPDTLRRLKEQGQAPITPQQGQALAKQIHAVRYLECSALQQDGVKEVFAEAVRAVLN
T1 sequence (P60953 1-178): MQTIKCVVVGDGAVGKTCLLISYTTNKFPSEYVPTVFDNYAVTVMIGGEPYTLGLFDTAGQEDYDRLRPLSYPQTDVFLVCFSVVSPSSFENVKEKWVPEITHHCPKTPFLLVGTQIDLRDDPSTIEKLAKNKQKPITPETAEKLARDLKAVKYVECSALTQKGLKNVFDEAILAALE
T5 sequence (P60953 1-178 T25K/N26D): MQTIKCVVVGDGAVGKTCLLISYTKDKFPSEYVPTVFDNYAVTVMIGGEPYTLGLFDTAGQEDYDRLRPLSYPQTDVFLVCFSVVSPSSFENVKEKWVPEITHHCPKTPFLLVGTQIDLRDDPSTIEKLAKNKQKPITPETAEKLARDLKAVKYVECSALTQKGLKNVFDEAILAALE
T13 sequence (P60953 other isoform, or with tags, fused parts or gaps M45E | N52E (T52 in CDC42) | M45E N52E): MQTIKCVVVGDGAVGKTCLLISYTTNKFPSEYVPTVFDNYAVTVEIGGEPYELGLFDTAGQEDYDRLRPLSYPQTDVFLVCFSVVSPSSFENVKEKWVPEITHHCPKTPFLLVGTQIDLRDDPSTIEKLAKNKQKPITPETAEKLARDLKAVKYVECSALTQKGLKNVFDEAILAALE
T10 sequence (P61586 1-181 K27T/D28N/E47M/E54N/D76Q): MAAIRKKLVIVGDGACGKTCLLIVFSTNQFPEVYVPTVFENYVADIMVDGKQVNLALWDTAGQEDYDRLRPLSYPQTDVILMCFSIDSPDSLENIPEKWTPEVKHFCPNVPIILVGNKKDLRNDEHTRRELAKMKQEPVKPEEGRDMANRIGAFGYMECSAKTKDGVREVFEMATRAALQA
T12 sequence (P60953 1-178 V85D/S88D): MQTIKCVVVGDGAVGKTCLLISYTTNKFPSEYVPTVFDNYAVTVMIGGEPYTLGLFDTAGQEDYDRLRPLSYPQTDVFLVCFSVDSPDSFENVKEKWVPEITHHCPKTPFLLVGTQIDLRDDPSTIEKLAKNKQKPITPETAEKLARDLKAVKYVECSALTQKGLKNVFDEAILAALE
T8 sequence (P60953 1-178 Q74D): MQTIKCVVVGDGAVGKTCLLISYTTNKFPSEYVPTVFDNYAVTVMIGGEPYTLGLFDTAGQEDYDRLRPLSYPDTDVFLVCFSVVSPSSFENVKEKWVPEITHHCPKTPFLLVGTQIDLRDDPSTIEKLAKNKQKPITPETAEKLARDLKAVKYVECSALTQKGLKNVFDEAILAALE

Kd (CDC42 (aa 1-178) [1]): 290 nM | Kd (RAC3 (aa 1-192) [2]): 450 nM | Kd (RHOG (aa 1-178) [3]): 490 nM | Kd (RAC1 (aa 1-179) [4]): 930 nM | Kd (CDC42 T25K/N26D [5]): 920 nM | Kd (RAC1 T25K/N26D [6]): 15300 nM | Kd (RAC1 Q74D [7]): 6100 nM | Kd (CDC42 Q74D [8]): 1320 nM | Kd (RAC1 M45E/N52E [9]): 8200 nM | Kd [10]: 1750 nM | Kd [11]: 10500 nM | Kd (CDC42 V85D/S88D [12]): 1200 nM | Kd [13]: 1230 nM | koff (CDC42 T25K/N26D [14]): 0.48 s⁻¹ | koff (RAC1 T25K/N26D [15]): 2.01 s⁻¹ | koff (RAC1 Q74D [16]): 0.74 s⁻¹ | koff (CDC42 Q74D [17]): 1.19 s⁻¹ | koff (RAC1 M45E/N52E [18]): 1.4 s⁻¹ | koff [19]: 2.1 s⁻¹ | koff [20]: 2.84 s⁻¹ | koff (CDC42 V85D/S88D [21]): 0.88 s⁻¹ | koff [22]: 0.95 s⁻¹ | koff (CDC42 (aa 1-178) [23]): 0.39 s⁻¹ | koff (RAC3 (aa 1-192) [24]): 0.69 s⁻¹ | koff (RHOG (aa 1-178) [25]): 0.56 s⁻¹ | koff (RAC1 (aa 1-179) [26]): 0.65 s⁻¹ | koff (RAC2 (aa 1-192)): 0.08 s⁻¹
B1: IQGAP1^C794 (C-terminal half of human IQGAP1 with the GRD, RGCT and CT domains) (domain or fragment)
chain: DPPMVVVRKFVHLLDQSDQDFQEELDLMKMREEVITLIRSNQQLENDLNLMDIKIGLLVKNKITLQDVVSHSKKLTKKNKEQLSDMMMINKQKGGLKALSKEKREKLEAYQHLFYLLQTNPTYLAKLIFQMPQNKSTKFMDSVIFTLYNYASNQREEYLLLRLFKTALQEEIKSKVDQIQEIVTGNPTVIKMVVSFNRGARGQNALRQILAPVVKEIMDDKSLNIKTDPVDIYKSWVNQMESQTGEASKLPYDVTPEQALAHEEVKTRLDSSIRNMRAVTDKFLSAIVSSVDKIPYGMRFIAKVLKDSLHEKFPDAGEDELLKIIGNLLYYRYMNPAIVAPDAFDIIDLSAGGQLTTDQRRNLGSIAKMLQHAASNKMFLGDNAHLSIINEYLSQSYQKFRRFFQTACDVPELQDKFNVDEYSDLVTLTKPVIYISIGEIINTHTLLLDHQDAIAPEHNDPIHELLDDLGEVPTIESLIGESSGNLNDPNKEALAKTEVSLTLTNKFDVPGDENAEMDARTILLNTKRLIVDVIRFQPGETLTEILETPATSEQEAEHQRAMQRRAIRDAKTPDKMKKSKSVKEDSNLTLQEKKEKIQTGLKKLTELGTVDPKNKYQELINDIARDIRNQRRYRQRRKAELVKLQQTYAALNSKATFYGEQVDYYKSYIKTCLDNLASKGKVSKKPREMKGKKSKKISLKYTAARLHEKGVLLEIEDLQVNQFKNVIFEISPTEEVGDFEVKAKFMGVQMETFMLHYQDLLQLQYEGVAVMKLFDRAKVNVNLLIFLLNKKFYGK
